Source: patent US20090304588A1

Molecular target: T1, Hyperpolarization-activated cyclic-nucleotide-gated (HCN) ion channel 1 (HCN1)
T1 sequence (O60741 1-890, species assumed, looked up): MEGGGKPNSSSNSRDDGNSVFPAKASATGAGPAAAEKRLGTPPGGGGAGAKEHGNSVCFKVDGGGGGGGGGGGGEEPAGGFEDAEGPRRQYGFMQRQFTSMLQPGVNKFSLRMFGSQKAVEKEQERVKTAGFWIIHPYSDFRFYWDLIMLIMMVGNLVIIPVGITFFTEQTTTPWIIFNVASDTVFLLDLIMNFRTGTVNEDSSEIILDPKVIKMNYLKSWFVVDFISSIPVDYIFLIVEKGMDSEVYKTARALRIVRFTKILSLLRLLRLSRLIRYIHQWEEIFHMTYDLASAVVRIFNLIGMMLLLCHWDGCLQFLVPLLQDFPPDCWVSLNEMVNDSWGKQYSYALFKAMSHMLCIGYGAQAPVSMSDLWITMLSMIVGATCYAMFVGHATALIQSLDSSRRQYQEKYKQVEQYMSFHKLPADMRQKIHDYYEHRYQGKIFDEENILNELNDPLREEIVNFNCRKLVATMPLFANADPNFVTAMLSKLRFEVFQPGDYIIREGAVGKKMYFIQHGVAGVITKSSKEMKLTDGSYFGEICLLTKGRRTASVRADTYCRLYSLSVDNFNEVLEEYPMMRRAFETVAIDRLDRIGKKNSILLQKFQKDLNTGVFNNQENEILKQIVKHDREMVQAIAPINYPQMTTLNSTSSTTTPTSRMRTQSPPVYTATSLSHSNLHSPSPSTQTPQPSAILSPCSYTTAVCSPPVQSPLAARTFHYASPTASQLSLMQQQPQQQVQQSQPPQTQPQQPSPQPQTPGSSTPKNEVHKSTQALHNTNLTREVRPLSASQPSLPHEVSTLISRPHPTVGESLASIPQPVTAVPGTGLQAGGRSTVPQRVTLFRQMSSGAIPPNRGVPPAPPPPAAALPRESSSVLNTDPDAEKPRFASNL
Experiment: cell-based or functional assay

reversal potential of HCN co-transfected with SPC: -22 mV
reversal potential of the current left after superfusion with Cs to block HCN1 homomultimers: -11.1 mV
Substance: S4TKv1.4GYS (human Kv1.4 with S4 triple mutation R447N, L448A, R453I and pore mutation G528S) (from UniProt P22459 1-653)
